The subject of data set [1] is FGF-induced angiogenesis in the mouse cornea. In words: Corneal pocket implant angiogenesis assay. Type of data set: in vivo. The procedure:
FIG. 13—Inhibition of corneal angiogenesis by SSTN. PolyHEMA pellets (0.25 μL) containing 67 ng FGF-2 and sucralfate were implanted into the avascular mouse cornea. Alzet pumps containing PBS, 2500 μM mS1ED or a range of SSTN concentrations (0-100 μM) were implanted subcutaneously on the back of the animals and angiogenesis for 7 days. Fluorescent dextran was injected suborbitally for 2 min prior to sacrifice for observation of the vascular system in dissected cornea (picture insets). Total angiogenesis is quantified as total length of vessels growing from the limbic vessels at the margin of the cornea.
A polyhydroxyethylmethacrylate (PolyHEMA) pellet 1 μl in volume containing 100 ng FGF was implanted into pockets surgically prepared in the center of the avascular corneas of 6 wk-old Balb/c mice. Three mice were used as controls and three mice received a 0.2 ml Alzet osmotic pump implanted subcutaneously on the back of the mice. The pump was loaded with 100 μM synstatin82-130 in sterile saline and delivers 1 μl into the mouse per hr. The mice were allowed to recover and were maintained for seven days. The extent of angiogenesis was recorded by digital camera images of the living mouse. Fluorescent dextran was then injected into the vascular via retro-orbital injection 1-2 minutes prior to sacrifice. Corneas were surgically removed, mounted on slides and the extent of vascularization observed via fluorescence microscopy.
To test the efficacy of synstatin82-130 in vivo, the inventors have used the mouse corneal pocket implant angiogenesis assay. Here, angiogenesis is induced in the avascular mouse cornea by implantation of a polyHEMA pellet containing fibroblast growth factor (FGF), which is a potent angiogenic agent. The FGF will induce angiogenic outgrowth of new vessels from the limbic vessels at the margin of the cornea into the avascular region at the center of the cornea where the pellet is implanted. The inventors have tested recombinant S1ED by supplying it along with the FGF in the pellet implanted into the cornea, and have also introduced it into the systemic circulation of the mouse through the use of an osmotic pump placed subcutaneously on the back of the animal. The latter protocol more closely mimics the manner in which such an inhibitor might be delivered as a drug in patients. […] The concentration necessary for the block in vivo has not yet been measured. […] However, this is likely to be a high estimate, as clearance and degradation are likely to occur, and the protein is likely to be present in the greater volume of the mouse than just the vascular system.
Lastly, SSTN was tested in the in vivo corneal angiogenesis assay. Polyhydroxyethylmethylacrylate pellets (0.25 μL) containing 67 ng FGF-2 and sucralfate as a slow release agent were implanted into the avascular mouse cornea. After seven days, fluorescent dextran was injected suborbitally to highlight the vascular system and the mice were sacrificed. […] To supply the inhibitor in a more quantifiable and physiological manner, recombinant mS1ED or SSTN were delivered systemically via Alzet osmotic pumps implanted subcutaneously on the backs of the animals. […] To correlate this with the active concentration in the plasma, the inventors took advantage of rabbit polyclonal antibodies generated against mS1ED, which detect active SSTN on dot blots. […] Using this method to detect active SSTN in the blood collected from animals after 1 week of SSTN treatment, SSTN is shown to be in the blood at 125-150 nM when present at 10 μM in the osmotic pump.

The subject of data set [2] is MDA-MB-231 human mammary carcinoma cells. Type of data set: cell-based. The procedure: FIGS. 5A-5F—Inhibition of MDA-MB-231 human mammary carcinoma cell attachment and spreading on VN by synstatin82-130. MDA-MB-231 human mammary carcinoma cells, which rely on the αvβ3 integrin for attachment and spreading on VN, were plated on 10 μg/ml VN for 2 hr in the absence of peptide (FIG. 5A) or in the presence of 0.1 (FIG. 5B), 0.3 (FIG. 5C) or 1 μM (FIG. 5D) synstatin82-130. The cells were fixed and stained as in FIG. 2.
FIG. 17—Human SSTN peptides inhibit αvβ3-mediated cell attachment and spreading on vitronectin. MDA-MB-231 human mammary carcinoma cells were allowed to attach and spread on either vitronectin (VN) or fibronectin (FN) during a 2 hr assay in the presence of 0, 0.1, 0.3, 0.5, 1.0 or 30 μM SSTN peptide. […] The two peptides tested are derived either from amino acids 88-121 (hSSTN 88-121) or 89-120 (hSSTN 89-120) of the human Sdc1 sequence. Adhesion to VN, but not FN, is mediated by the αvβ3 integrin on these cells and is disrupted by the human SSTN peptides.
Cell adhesion and spreading assays were performed with modification to the previous procedures (Lebakken and Rapraeger, 1996. Briefly, human plasma vitronectin or fibronectin at 10-30 μg/ml were applied to nitrocellulose-coated ten well slides (Erie Scientific) and incubated for 1-2 h at 37° C. Slides were blocked with 1.0% heat-denatured bovine serum albumin for a minimum of 30 min at 37° C. Cells were detached from the substratum using 5 mM EDTA in Tris-buffered saline and resuspended in HEPES-buffered culture medium containing 0.1% heat-denatured BSA. Cells were plated at a density of 15,000 cells per well and allowed to attach and spread for 2 h prior to fixation in 4% paraformaldehyde in CMF-PBS. For fluorescence microscopy, fixed cells were permeabilized in 0.2% Triton X-100, labeled with rhodamine-conjugated phalloidin and analyzed using fluorescence microscopy. For testing inhibition by recombinant mScd-1ED and synstatin82-130, cells were pre-incubated 10 min before plating in the presence of the inhibitor. […] LM609 was used as a specific block to αvβ3 and P1F6 was used as a specific blocker of αvβ5.
The inventors have tested the adhesion and spreading of MDA-MB-231 mammary carcinoma cells on VN in the presence or absence of synstatin82-130. These cells rely specifically on the active αvβ3 integrin for this adhesion (Beauvais et al., 2004). Recombinant Sdc1 ectodomain (SLED) has been shown by the inventors previously to block spreading of these cells with an IC50 of about 3-10 μM (Beauvais et al., 2004). […] Thus, synstatin82-130 is a specific and effective inhibitor of αvβ3 integrin activation.

These results are taken from patent publication US10864251B2, “Peptides of syndecan-1 for inhibiting angiogenesis” (Wisconsin Alumni Research Foundation, priority 2006, dated 2020).

Where no end group is shown, it is not given here.

On to “SNTETAFTSVLPAGEKPEEGEPVLHVEAEPGFTARDKEKEVTTRPRETV [synstatin82-130]”, for which the “ill effects after one week of treatment” value in data set [1] (100 μM in osmotic pump, activity, eating, weight, behavior) was “no ill effects”. Further, the “estimated systemic concentration after 24 hr” value in data set [1] (100 μM in pump, same assumptions) was no more than 1.2 µM. Besides, the IC50 in data set [2] (2 h) was roughly 100 nM.

B1: S1ED: recombinant mouse Sdc1 ectodomain (amino acids 18-251), expressed in bacteria as GST fusion or 6×His-tagged protein (protein)
chain: QPALPQIVAVNVPPEDQDGSGDDSDNFSGSGTGALPDTLSRQTPSTWKDVWLLTATPTAPEPTSSNTETAFTSVLPAGEKPEEGEPVLHVEAEPGFTARDKEKEVTTRPRETVQLPITQRASTVRVTTAQAAVTSHPHGGMQPGLHETSAPTAPGQPDHQPPRVEGGGTSVIKEVVEDGTANQLPAGEGSGEQDFTFETSGENTAVAAVEPGLRNQPPVDEGATGASQSLLDRK
modifications: left off: a dimerising Fc or GST
notes: recombinant mouse Sdc1 ectodomain (amino acids 18-251), expressed in bacteria as GST fusion or 6×His-tagged protein
For the molecule B1, in data set [1] (2.4 mM in pump, 1 μl per hour, assuming 2 ml blood volume, no degradation or clearance), the “estimated systemic concentration after 24 hr” value is “approximately 29 μM”. For the same molecule, the corneal angiogenesis result in data set [1] (2500 μM in Alzet pump, 67 ng FGF-2 pellet, 7 days) was “nearly total block of angiogenesis”; in data set [1] (incorporated into the pellet) it was “reduced the angiogenesis”. Besides, the FGF-induced corneal angiogenesis result in data set [1] (in the pellet with FGF or systemic via osmotic pump, 2.4 mM, 1 μl per hour) is “blocks the FGF-induced angiogenesis”. Besides, in data set [2] (highest concentration tested, 50 μM), the “complete block of cell attachment on VN” value is given as “not seen”.
